Source: patent US6500927B2 (priority 1998, dated 2002)

How the values were obtained:
[1] = biological target: MOR-1 (mu-opioid receptor-1, full length) (mouse) (UniProt P42866); test: competition with ^3H-DAMGO, CHO cell membranes
[2] = biological target: MOR-1C splice variant of the mu-opioid receptor-1 (mouse); test: competition with ^3H-DAMGO, CHO cell membranes
[3] = biological target: MOR-1D splice variant of the mu-opioid receptor-1 (mouse) (UniProt P42866); test: competition with ^3H-DAMGO, CHO cell membranes
[4] = biological target: MOR-1E splice variant of the mu-opioid receptor-1 (mouse) (UniProt P42866); test: competition with ^3H-DAMGO, CHO cell membranes
[5] = biological target: MOR-1 (mu-opioid receptor-1, full length) (mouse) (UniProt P42866); test: saturation radioligand binding, membranes of stably transfected CHO cells
[6] = biological target: MOR-1C splice variant of the mu-opioid receptor-1 (mouse); test: as above
[7] = biological target: MOR-1D splice variant of the mu-opioid receptor-1 (mouse) (UniProt P42866); test: as above
[8] = biological target: MOR-1E splice variant of the mu-opioid receptor-1 (mouse) (UniProt P42866); test: as above
[9] = biological target: T1, MOR-1D (Mus musculus, UniProt P42866); type: binding; conditions: MOR-1D vs MOR-1, p<0.05
T1 construct: The cDNA fragments containing the full length MOR-1 or the MOR-1 variants in pCRII-ToPo were subcloned into pcDNA3.1; expressed in transfected cells

[10] = biological target: T2, MOR-1E (Mus musculus, UniProt P42866); type: binding; conditions: MOR-1E vs MOR-1
T2 construct: The cDNA fragments containing the full length MOR-1 or the MOR-1 variants in pCRII-ToPo were subcloned into pcDNA3.1; expressed in transfected cells

With “[D-Ala^2, MePhe^4, Gly(ol)^5]enkephalin (DAMGO) (peptide)” the Ki [1] was 1.8 nM, the Ki [2] was 0.93 nM and the Ki [3] was 0.71 nM. It also gave a Ki [4] of 1.2 nM, a Kd [5] of 1.75 nM and a Kd [6] of 0.93 nM. The Kd [7] was 0.72 nM and the Kd [8] was 1.2 nM.

DADLE (peptide) showed a Ki [1] of 2.1 nM, a Ki [2] of 3.2 nM and a Ki [3] of 1.3 nM. It also gave a Ki [4] of 2.5 nM.

In the case of “[D-Ser^2, Leu^5]enkephalin-Thr^6 [DSLET]”, the “Potency against binding to MOR-1D relative to MOR-1 (in words)” value [9] is reported as “twice as potent”.

“[D-Ser^2, Leu^5]enkephalin-Thr^6 (DSLET) (peptide)” gave a fold potency against MOR-1 [3] of 2 fold.

In the case of β-endorphin: endogenous opioid peptide, the “Affinity of MOR-1E compared with MOR-1” value [10] is reported as “significantly higher affinity”.
